Measurements published in US20250295799A1 (Zymeworks, published 2025).

B1: H18L6_LC_G34A mAb, v40212 (antibody, human IgG1, kappa, V domains shown)
VH: QVQLVQSGAEVKKPGSSVKVSCKASGYTFTDYEMHWVKQAPGHGLEWIGAIDPETGDTAYNQKFKGKATLTADTSTSTAYMELSSLRSEDTAVYYCTRYFSFAYWGQGTLVTVSS
VL: EIVLTQSPATLSLSPGERATISCRSSQSLRHSNANTYLQWYQQKPGQAPRLLIYKVSNRFSGVPARFSGSGSGTDFTLTISSLEPEDFAVYFCYQSKHVPYTFGGGTKVEIKR
notes: M3-H18L6 chains with the stated light chain point mutation, IgG1/kappa
B2: H18L6_LC_G34Q mAb, v40208 (antibody, human IgG1, kappa, V domains shown)
VH: QVQLVQSGAEVKKPGSSVKVSCKASGYTFTDYEMHWVKQAPGHGLEWIGAIDPETGDTAYNQKFKGKATLTADTSTSTAYMELSSLRSEDTAVYYCTRYFSFAYWGQGTLVTVSS
VL: EIVLTQSPATLSLSPGERATISCRSSQSLRHSNQNTYLQWYQQKPGQAPRLLIYKVSNRFSGVPARFSGSGSGTDFTLTISSLEPEDFAVYFCYQSKHVPYTFGGGTKVEIKR
notes: Full-size IgG1/kappa
B3: H18L6_LC_G34E mAb, v40204 (antibody, human IgG1, kappa, V domains shown)
VH: QVQLVQSGAEVKKPGSSVKVSCKASGYTFTDYEMHWVKQAPGHGLEWIGAIDPETGDTAYNQKFKGKATLTADTSTSTAYMELSSLRSEDTAVYYCTRYFSFAYWGQGTLVTVSS
VL: EIVLTQSPATLSLSPGERATISCRSSQSLRHSNENTYLQWYQQKPGQAPRLLIYKVSNRFSGVPARFSGSGSGTDFTLTISSLEPEDFAVYFCYQSKHVPYTFGGGTKVEIKR
notes: as for B1
B4: H18L6_LC_G34R mAb, v40206 (antibody, human IgG1, kappa, V domains shown)
VH: QVQLVQSGAEVKKPGSSVKVSCKASGYTFTDYEMHWVKQAPGHGLEWIGAIDPETGDTAYNQKFKGKATLTADTSTSTAYMELSSLRSEDTAVYYCTRYFSFAYWGQGTLVTVSS
VL: EIVLTQSPATLSLSPGERATISCRSSQSLRHSNRNTYLQWYQQKPGQAPRLLIYKVSNRFSGVPARFSGSGSGTDFTLTISSLEPEDFAVYFCYQSKHVPYTFGGGTKVEIKR
notes: Full-size IgG1/kappa
B5: H18L6_LC_G34K mAb, v40207 (antibody, human IgG1, kappa, V domains shown)
VH: QVQLVQSGAEVKKPGSSVKVSCKASGYTFTDYEMHWVKQAPGHGLEWIGAIDPETGDTAYNQKFKGKATLTADTSTSTAYMELSSLRSEDTAVYYCTRYFSFAYWGQGTLVTVSS
VL: EIVLTQSPATLSLSPGERATISCRSSQSLRHSNKNTYLQWYQQKPGQAPRLLIYKVSNRFSGVPARFSGSGSGTDFTLTISSLEPEDFAVYFCYQSKHVPYTFGGGTKVEIKR
notes: Full-size IgG1/kappa
B6: v37574 (M3-H18L6) (antibody, human IgG1, kappa)
heavy: not shown
light: EIVLTQSPATLSLSPGERATISCRSSQSLRHSNGNTYLQWYQQKPGQAPRLLIYKVSNRFSGVPARFSGSGSGTDFTLTISSLEPEDFAVYFCYQSKHVPYTFGGGTKVEIKRTVAAPSVFIFPPSDEQLKSGTASVVCLLNNFYPREAKVQWKVDNALQSGNSQESVTEQDSKDSTYSLSSTLTLSKADYEKHKVYACEVTHQGLSSPVTKSFNRGEC
notes: Humanized full-size IgG1/kappa antibody, heavy chains without C-terminal lysine
B7: v38592-MC-GGFG-AM-Compound 139, DAR 8 (antibody, human IgG1, kappa)
heavy: not shown
light: EIVLTQSPATLSLSPGERATISCRSSQSLRHSNGNTYLQWYQQKPGQAPRLLIYKVSNRFSGVPARFSGSGSGTDFTLTISSLEPEDFAVYFCYQSKHVPYTFGGGTKVEIKRTVAAPSVFIFPPSDEQLKSGTASVVCLLNNFYPREAKVQWKVDNALQSGNSQESVTEQDSKDSTYSLSSTLTLSKADYEKHKVYACEVTHQGLSSPVTKSFNRGEC
modifications: MC-GGFG-AM-Compound 139 drug-linker on cysteines (positions not stated); DAR 8 per antibody
notes: Antibody-drug conjugate of v38592
B8: v38592-MC-GGFG-AM-Compound 139, DAR 4 (antibody, human IgG1, kappa)
heavy: not shown
light: EIVLTQSPATLSLSPGERATISCRSSQSLRHSNGNTYLQWYQQKPGQAPRLLIYKVSNRFSGVPARFSGSGSGTDFTLTISSLEPEDFAVYFCYQSKHVPYTFGGGTKVEIKRTVAAPSVFIFPPSDEQLKSGTASVVCLLNNFYPREAKVQWKVDNALQSGNSQESVTEQDSKDSTYSLSSTLTLSKADYEKHKVYACEVTHQGLSSPVTKSFNRGEC
modifications: MC-GGFG-AM-Compound 139 drug-linker on cysteines (positions not stated); DAR 4 per antibody
notes: as for B7

What was measured:
human glypican-3 (GPC3) [1] = target: T1, human glypican-3 (GPC3) (human, UniProt P51654 25-554); assay: flow cytometry on JHH-7 cells; antibody after 14 days in mouse plasma at 37 C
T1 construct: Endogenous on JHH-7, JHH-5, HepG2 and NCI-H446 tumour cells, or transiently expressed on CHO-S cells from a pTT5 plasmid; also called hGPC3; huGPC3
Description: (§1) For binding cells were seeded at 50,000 cells/well in V-bottom 96-well plates and treated with antibody for 24 hours at 4° C. to prevent internalization. […] Following incubation and washing, fluorescence was detected by flow cytometry on a BD LSRFortessa™ Cell Analyzer (BD Biosciences, Franklin Lake, NJ) with 1,000 minimum events collected per well. AF647/APC-A GeoMean (fluorescence signal geometric mean, proportional to anti-Human AF647 binding) in live cell population was plotted against antibody concentration using GraphPad Prism Version 9 (GraphPad Software, San Diego, CA). The Bmax, Curve Hill Slope (h) and Kd values were derived from the “Specific binding with Hill slope” nonlinear regression curve fit in GraphPad Prism Version 9.

human glypican-3 (GPC3) [2] = target: T1, human glypican-3 (GPC3); assay: flow cytometry on JHH-5 cells; antibody after 14 days in mouse plasma at 37 C
Description: as §1

human glypican-3 (GPC3) [3] = target: T1, human glypican-3 (GPC3); assay: flow cytometry on JHH-7 cells; antibody in mouse plasma, day 0
Description: as §1

human glypican-3 (GPC3) [4] = target: T1, human glypican-3 (GPC3); assay: cell-based or functional assay
human glypican-3 (GPC3) [5] = target: T1, human glypican-3 (GPC3); assay: cell-based or functional assay; remark: listed apart in the source
human glypican-3 (GPC3) [6] = target: T1, human glypican-3 (GPC3); assay: flow cytometry on JHH-5 cells (GPC3-mid);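 note: antibody binding to cells at 4 °C for 24 h, detected with anti-human AF647 as geometric mean fluorescence of live cells versus antibody concentration, fitted by specific binding with Hill slope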
human glypican-3 (GPC3) [7] = target: T1, human glypican-3 (GPC3); assay: flow cytometry on CHO-S cells transfected with human GPC3;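 note: antibody binding to transiently transfected CHO-S cells after 24 hours at 4 °C, read as geometric mean fluorescence of anti-human AF647 in live cells, fitted against antibody concentration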
Description: Briefly, CHO—S cells were transiently transfected for −24 hours with a pTT5-based expression plasmid encoding human GPC3 or cynomolgus monkey GPC3, 0.5 μg DNA per 1 million cells, using the Neon™ Transfection System (Thermo Fisher Scientific Corp., Waltham, MA), to transiently express human or cynomolgus monkey GPC3. Cells transfected with GFP were used as negative transfection controls. Following transfection, cells were seeded at 50,000 cells/well in V-bottom 96-well plates and treated with antibody for 24 hours at 4° C. to prevent internalization. […] Following incubation and washing, fluorescence was detected by flow cytometry on a BD LSRFortessa™ Cell Analyzer (BD Biosciences, Franklin Lake, NJ) with 1,000 minimum events collected per well. AF647/APC-A GeoMean (fluorescence signal geometric mean, proportional to anti-Human AF647 binding) in live cell population was plotted against antibody concentration using GraphPad Prism Version 9 (GraphPad Software, San Diego, CA). The Bmax and Kd values were derived from the “Specific binding with Hill slope” nonlinear regression curve fit in GraphPad Prism Version 9.

human glypican-3 (GPC3) [8] = target: T1, human glypican-3 (GPC3); assay: flow cytometry on JHH-7 cells (GPC3-high);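 note: antibody binding at 4 °C for 24 h, detected with anti-human AF647 secondary, geometric mean fluorescence of live cells versus antibody concentration, fitted as specific binding with Hill slope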
Description: (§2) Briefly, cells were seeded at 50,000 cells/well in V-bottom 96-well plates and treated with antibody for 24 hours at 4° C. to prevent internalization. […] Following incubation and washing, fluorescence was detected by flow cytometry on a BD LSRFortessa™ Cell Analyzer (BD Biosciences, Franklin Lake, NJ) with 1,000 minimum events collected per well. AF647/APC-A GeoMean (fluorescence signal geometric mean, proportional to anti-Human AF647 binding) in live cell population was plotted against antibody concentration using GraphPad Prism Version 9 (GraphPad Software, San Diego, CA). The Bmax, Curve Hill Slope (h) and Kd values were derived from the “Specific binding with Hill slope” nonlinear regression curve fit in GraphPad Prism Version 9.

[9] = target: T2, cynomolgus monkey glypican-3 (GPC3) (cynomolgus monkey, UniProt A5A6P7 25-554 (Pan troglodytes entry)); assay: flow cytometry on CHO-S cells transfected with cynomolgus GPC3;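 note: antibodies incubated 24 h at 4 °C with transiently transfected cells, binding read as AF647 geometric mean fluorescence of live cells, GFP-transfected cells as negative control, Hill-slope specific-binding fit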
T2 construct: Transiently expressed on CHO-S cells; also called cynoGPC3; CynoGPC3-CHO

human glypican-3 (GPC3) [10] = target: T1, human glypican-3 (GPC3); assay: flow cytometry on JHH-5 cells; antibody in mouse plasma, day 0
Description: as §1

[11] = target: T3, cynomolgus monkey GPC3 on CHO-S cells (cynomolgus monkey, UniProt A0A2K5VK50 24-553); assay: flow cytometry, CHO-S cells transfected with cynomolgus monkey GPC3; apparent Kd
T3 construct: whole, on cells; also called CHO-S Cyno GPC3
Description: (§3) Briefly, CHO—S cells were transiently transfected for −24 hours with a pTT5-based expression plasmid encoding human GPC3 or cynomolgus monkey GPC3, 0.5 μg DNA per 1 million cells, using the Neon™ Transfection System (Thermo Fisher Scientific Corp., Waltham, MA), to transiently express human or cynomolgus monkey GPC3. Following transfection, cells were seeded at 50,000 cells/well in V-bottom 96-well plates and treated with antibody for 24 hours at 4° C. to prevent internalization. […] Following incubation and washing, fluorescence was detected by flow cytometry on a BD LSRFortessa™ Cell Analyzer (BD Biosciences, Franklin Lake, NJ) with 1,000 minimum events collected per well. AF647/APC-A GeoMean (fluorescence signal geometric mean, proportional to anti-Human AF647 binding) in live cell population was plotted against antibody concentration using GraphPad Prism Version 9 (GraphPad Software, San Diego, CA). The Bmax and Kd values were derived from the “Specific binding with Hill slope” nonlinear regression curve fit in GraphPad Prism Version 9.

[12] = target: T3, cynomolgus monkey GPC3 on CHO-S cells; assay: flow cytometry, CHO-S cells transfected with cynomolgus monkey GPC3
Description: as §3

human GPC3 on cells [13] = target: T4, human GPC3 on cells (human, UniProt P51654 25-554); assay: flow cytometry, CHO-S cells transfected with human GPC3; apparent Kd
T4 construct: whole, on cells; One molecule is used for transfected CHO-S cells and for tumour cell lines that carry GPC3; the cell line is named under assay or readout; also called CHO-S Human GPC3; GPC3 on HepG2, JHH-7, JHH-5, NCI-H446, FU-97, Huh-6, Huh-7, MKN-45 cells
Description: as §3

human GPC3 on cells [14] = target: T4, human GPC3 on cells; assay: flow cytometry, CHO-S cells transfected with human GPC3
Description: as §3

human GPC3 on cells [15] = target: T4, human GPC3 on cells; assay: flow cytometry, HepG2 cells
Description: (§4) Cell lines investigated included GPC3-hi HepG2 and JHH-7 cells, GPC3-mid JHH-5 cells, as well as GPC3-negative SNU-601 cells.
as §2

human GPC3 on cells [16] = target: T4, human GPC3 on cells; assay: flow cytometry, JHH-5 cells
Description: as §4, §2

human GPC3 on cells [17] = target: T4, human GPC3 on cells; assay: flow cytometry, JHH-7 cells
Description: as §4, §2
Throughout, for JHH-5 Internalization (MFI), Day 0 in mouse plasma: test concentration or dose not given here.
Throughout, for JHH-5 Internalization (MFI), Day 14 in mouse plasma: test concentration or dose not given here.
Throughout, for JHH-5 Internalization (MFI): test concentration or dose not given here.
Throughout, for JHH-7 Internalization (MFI), Day 0 in mouse plasma: test concentration or dose not given here.
Throughout, for JHH-7 Internalization (MFI), Day 14 in mouse plasma: test concentration or dose not given here.
Throughout, for JHH-7 Internalization (MFI): test concentration or dose not given here.

| Binder | Bmax (MFI) (human glypican-3 (GPC3) [1]) | Kd (human glypican-3 (GPC3) [1]) [nM] | Bmax (MFI) (human glypican-3 (GPC3) [2]) | Kd (human glypican-3 (GPC3) [2]) [nM] | Bmax (MFI) (human glypican-3 (GPC3) [3]) | Kd (human glypican-3 (GPC3) [3]) [nM] | JHH-5 Internalization (MFI) (human glypican-3 (GPC3) [4]) | JHH-7 Internalization (MFI) (human glypican-3 (GPC3) [4]) | JHH-5 Internalization (MFI), Day 0 in mouse plasma (human glypican-3 (GPC3) [5]) [MFI] | JHH-5 Internalization (MFI), Day 14 in mouse plasma (human glypican-3 (GPC3) [5]) [MFI] | JHH-7 Internalization (MFI), Day 0 in mouse plasma (human glypican-3 (GPC3) [5]) [MFI] | JHH-7 Internalization (MFI), Day 14 in mouse plasma (human glypican-3 (GPC3) [5]) [MFI] | Bmax (MFI) (human glypican-3 (GPC3) [6]) | Kd (human glypican-3 (GPC3) [6]) [nM] | Bmax (MFI) (human glypican-3 (GPC3) [7]) | Kd (human glypican-3 (GPC3) [7]) [nM] | Bmax (MFI) (human glypican-3 (GPC3) [8]) | Kd (human glypican-3 (GPC3) [8]) [nM] | Bmax (MFI) [9] [MFI] | Kd [9] [nM] | also measured |
| --- | --- | --- | --- | --- | --- | --- | --- | --- | --- | --- | --- | --- | --- | --- | --- | --- | --- | --- | --- | --- | --- |
| B1 | 11300 | 0.28 | 6050 | 0.23 | 8360 | 0.36 | 9070 | 8070 | 10200 | 7290 | 131 | 75 | 3850 | 0.31 | 2200 | 0.12 | 13300 | 0.56 | 3160 | 0.25 | Bmax (MFI) (human glypican-3 (GPC3) [10]): 4930 MFI; Kd (human glypican-3 (GPC3) [10]): 0.15 nM |
| B2 | 11000 | 0.23 | 5640 | 0.15 | 8910 | 0.32 | 9510 | 8920 | 10500 | 9980 | 131 | 106 | 4360 | 0.16 | 2280 | 0.11 | 11600 | 0.44 | 2820 | 0.15 | Bmax (MFI) (human glypican-3 (GPC3) [10]): 4730 MFI; Kd (human glypican-3 (GPC3) [10]): 0.11 nM |
| B3 | 8430 | 0.67 | 4460 | 0.26 | 8500 | 0.26 | 5770 | 4410 | 7100 | 6040 | 91 | 73 | 4140 | 0.17 | 2260 | 0.11 | 12500 | 0.42 | 2870 | 0.15 | Bmax (MFI) (human glypican-3 (GPC3) [10]): 4760 MFI; Kd (human glypican-3 (GPC3) [10]): 0.11 nM |
| B4 | 9710 | 0.39 | 5320 | 0.21 | 9390 | 0.15 | 10700 | 9240 | 13300 | 11100 | 144 | 115 | 4910 | 0.19 | 2450 | 0.1 | 12500 | 0.34 | 2850 | 0.13 | Bmax (MFI) (human glypican-3 (GPC3) [10]): 5450 MFI; Kd (human glypican-3 (GPC3) [10]): 0.07 nM |
| B5 | 10900 | 0.31 | 6460 | 0.26 | 9620 | 0.16 | 10000 | 8760 | 12800 | 11400 | 143 | 115 | 4740 | 0.2 | 2330 | 0.11 | 12200 | 0.39 | 2930 | 0.16 | Bmax (MFI) (human glypican-3 (GPC3) [10]): 5490 MFI; Kd (human glypican-3 (GPC3) [10]): 0.07 nM |
| B6 |  |  |  |  |  |  |  |  |  |  |  |  |  |  |  |  |  |  |  |  | Kd [11]: 0.39 nM; Bmax [12]: 474; Kd (human GPC3 on cells [13]): 0.2 nM; Bmax (human GPC3 on cells [14]): 242; Bmax (human GPC3 on cells [15]): 4570; Bmax (human GPC3 on cells [16]): 4350; Kd (human GPC3 on cells [16]): 0.2 nM; Bmax (human GPC3 on cells [17]): 4980; Kd (human GPC3 on cells [17]): 3.31 nM |
| B7 |  |  |  |  |  |  |  |  |  |  |  |  |  |  |  |  |  |  |  |  | Kd [11]: 0.7 nM; Bmax [12]: 511; Kd (human GPC3 on cells [13]): 0.33 nM; Bmax (human GPC3 on cells [14]): 247; Bmax (human GPC3 on cells [15]): 3370; Kd (human GPC3 on cells [15]): 7.27 nM; Bmax (human GPC3 on cells [16]): 5710; Kd (human GPC3 on cells [16]): 0.51 nM; Bmax (human GPC3 on cells [17]): 4550; Kd (human GPC3 on cells [17]): 0.7 nM |
| B8 |  |  |  |  |  |  |  |  |  |  |  |  |  |  |  |  |  |  |  |  | Kd [11]: 0.55 nM; Bmax [12]: 506; Kd (human GPC3 on cells [13]): 0.29 nM; Bmax (human GPC3 on cells [14]): 259; Bmax (human GPC3 on cells [15]): 4050; Kd (human GPC3 on cells [15]): 8.69 nM; Bmax (human GPC3 on cells [16]): 5500; Kd (human GPC3 on cells [16]): 0.43 nM; Bmax (human GPC3 on cells [17]): 4730; Kd (human GPC3 on cells [17]): 0.88 nM |
